According to patent publication US20260132197A1:

Assays:
[1] = target: human CD47 on cells (SHP-77 tumor cells, human red blood cells, CCRF-CEM cells, human CD47 CHO-K1 stable cell line) (human) (UniProt Q08722); assay: cell-based or functional assay
[2] = target: human CD47 on cells (SHP-77 tumor cells, human red blood cells, CCRF-CEM cells, human CD47 CHO-K1 stable cell line) (human) (UniProt Q08722); assay: flow cytometry on human RBCs
[3] = target: human CD47 on cells (SHP-77 tumor cells, human red blood cells, CCRF-CEM cells, human CD47 CHO-K1 stable cell line) (human) (UniProt Q08722); assay: flow cytometry on SHP-77 cells
[4] = target: human CD47 on cells (SHP-77 tumor cells, human red blood cells, CCRF-CEM cells, human CD47 CHO-K1 stable cell line) (human) (UniProt Q08722); assay: flow cytometry on human CD47 CHO-K1 cells; plateau not reached, not accurate
[5] = target: cynomolgus CD47 on CHO-K1 stable cell line (cynomolgus); assay: flow cytometry on cynomolgus CD47 CHO-K1 cells; plateau not reached, not accurate

For TTI-622 fusion protein (Fc fusion), the CCRF-CEM phagocytosis EC50 [1] was 0.4 nM, the CCRF-CEM phagocytosis, Phagocytosis (%) [1] was 36.6% and the EC50 [2] was 9.7 nM. It also gave a Fitted maximal MFI [2] of 644 MFI, an EC50 [3] of 4.9 nM and a Fitted maximal MFI [3] of 10500 MFI. The EC50 [4] was 10.4 nM and the EC50 [5] was 9.3 nM.
